PMC4948871, “The Molecular Mechanism of Ethylene-Mediated Root Hair Development Induced by Phosphate Starvation”

T1: GST-EIN3(141-352) (Arabidopsis thaliana, UniProt O24606 141-352)
T1 sequence: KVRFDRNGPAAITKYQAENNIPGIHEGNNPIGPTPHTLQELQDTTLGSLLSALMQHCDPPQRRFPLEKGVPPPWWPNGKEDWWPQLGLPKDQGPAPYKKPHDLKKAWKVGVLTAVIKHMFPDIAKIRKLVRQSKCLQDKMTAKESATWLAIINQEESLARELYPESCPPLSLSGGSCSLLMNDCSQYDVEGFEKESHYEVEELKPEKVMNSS

B1: EXT14-P2 (dsDNA)
DNA 1: TGCATATGAATTAACATGCATATGAATTAACATGCATATGAATTAACATGCATATGAATTAACA
DNA 2: TGTTAATTCATATGCATGTTAATTCATATGCATGTTAATTCATATGCATGTTAATTCATATGCA
B2: PRP1-P4 (dsDNA)
DNA 1: AACAGATGAACGACATAACAGATGAACGACATAACAGATGAACGACATAACAGATGAACGACAT
DNA 2: ATGTCGTTCATCTGTTATGTCGTTCATCTGTTATGTCGTTCATCTGTTATGTCGTTCATCTGTT
B3: RHS15-P2 (dsDNA)
DNA 1: GACAAATGAATTCGGAGACAAATGAATTCGGAGACAAATGAATTCGGAGACAAATGAATTCGGA
DNA 2: TCCGAATTCATTTGTCTCCGAATTCATTTGTCTCCGAATTCATTTGTCTCCGAATTCATTTGTC
B4: RHS19-P1 (dsDNA)
DNA 1: TCTGCACGAATGTCACTCTGCACGAATGTCACTCTGCACGAATGTCACTCTGCACGAATGTCAC
DNA 2: GTGACATTCGTGCAGAGTGACATTCGTGCAGAGTGACATTCGTGCAGAGTGACATTCGTGCAGA

What follows are binders tested against T1, GST-EIN3(141-352) (assay: EMSA; competed by 500x unlabelled probe; 25 mM HEPES-KOH pH 7.5, 100 mM KCl, 0.1 mM EDTA, 10% glycerol, 1 mM DTT, 1 ug poly(dI-dC), 0.1 ug protein in 20 uL, room temperature 30 min; 5.5% PAGE in 0.5x TBE). Details: protein: recombinant; tags: GST (pGEX-6p-1); chain copies: 2; label: biotin; blunt.
B1: binds.
B2: binds.
B3: binds.
B4: binds.
